Measured values from patent US8114832 (UMC UTRECHT HOLDING B V, dated 2012).
Ends that are not written are not given here.

T1: recombinant human β2-glycoprotein I (human, UniProt P02749 20-345)
T1 construct: Said to hold more cross-β structure conformation than plasma β2GPI; also called recombinant β2GPI; rec. β2GPI
T1 sequence (looked up): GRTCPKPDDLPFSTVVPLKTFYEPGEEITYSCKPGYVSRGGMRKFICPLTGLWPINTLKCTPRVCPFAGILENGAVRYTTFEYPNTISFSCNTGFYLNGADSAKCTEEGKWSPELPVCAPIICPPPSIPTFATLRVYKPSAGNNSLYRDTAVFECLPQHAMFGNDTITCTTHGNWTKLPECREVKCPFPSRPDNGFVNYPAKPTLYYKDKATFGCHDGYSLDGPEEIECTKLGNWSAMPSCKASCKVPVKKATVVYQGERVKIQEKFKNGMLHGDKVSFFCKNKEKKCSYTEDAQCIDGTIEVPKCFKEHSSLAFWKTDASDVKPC


What was measured:
[1] = molecular target: T1, recombinant human β2-glycoprotein I; assay: SPR (Biacore), chemically synthesized tPA F immobilized (395 RU)
Description: Then, the proteins were covalently coupled to the activated dextran surface. Remaining activated groups in each of the four flow channels were blocked by injection of 35 μl of 1 M ethanolamine hydrochloride pH 8.5. EDC, NHS and ethanolamine hydrochloride were obtained from Biacore. […] The running buffer during immobilization was 10 mM HEPES pH 7.4, 140 mM NaCl. Buffers were filtrated on a 0.22 μm filter (white GSWP, 47 mm, Millipore) and degassed at room temperature.

[2] = molecular target: T1, recombinant human β2-glycoprotein I; assay: SPR (Biacore), chemically synthesized HGFA F immobilized (190 RU)
Description: The running buffer during immobilization was 10 mM HEPES pH 7.4, 140 mM NaCl. Buffers were filtrated on a 0.22 μm filter (white GSWP, 47 mm, Millipore) and degassed at room temperature.
Regeneration buffer was running buffer supplemented with 1 M NaCl.

Binder | binding result [1] | binding result [2]
chemically synthesized tPA F domain (other, cysteine pairing not given here; also: C-terminal lysine acetylated or biotinylated, domain: F domain; Made from two peptides by native chemical ligation) SYQVICRDEKTQMIYQQHQSWLRPVLRSNRVEYCWCNSGRAQCHSVPVKSK | no binding (tested: 0-300 mM (so in the source)) | –
EKCFDETRYEYLEGGDRWARVRQGHVEQCECFGGRTWCEGT (other, UniProt Q04756 200-240, looked up, cysteine pairing not given here; also: acetylated lysine, position not given here, domain: F domain; Made from two peptides by native chemical ligation) [chemically synthesized HGFA F domain] | – | no binding (tested: 0-300 mM (so in the source))
